Test results from patent US20210253716A1.
Values belong to the substance of their own block, whether it stands above or below them.

Columns and labels:
[1] = molecular target: full length human ACVR1 (R206H) on HEK293/BRE-luc/hACVR1-R206H-clone H2 cells (human) (UniProt Q04771); test: flow cytometry, secondary antibody alone (66.6 nM run), HEK293/hACVR1-R206H cells
[2] = molecular target: full length wild type human ACVR1 on HEK293/BRE-luc/hACVR1-wild type cells (human) (UniProt Q04771); test: flow cytometry, secondary antibody alone (66.6 nM run), HEK293/hACVR1-wt cells
Chain of full length wild type human ACVR1 on HEK293/BRE-luc/hACVR1-wild type cells (human) (Q04771 21-509): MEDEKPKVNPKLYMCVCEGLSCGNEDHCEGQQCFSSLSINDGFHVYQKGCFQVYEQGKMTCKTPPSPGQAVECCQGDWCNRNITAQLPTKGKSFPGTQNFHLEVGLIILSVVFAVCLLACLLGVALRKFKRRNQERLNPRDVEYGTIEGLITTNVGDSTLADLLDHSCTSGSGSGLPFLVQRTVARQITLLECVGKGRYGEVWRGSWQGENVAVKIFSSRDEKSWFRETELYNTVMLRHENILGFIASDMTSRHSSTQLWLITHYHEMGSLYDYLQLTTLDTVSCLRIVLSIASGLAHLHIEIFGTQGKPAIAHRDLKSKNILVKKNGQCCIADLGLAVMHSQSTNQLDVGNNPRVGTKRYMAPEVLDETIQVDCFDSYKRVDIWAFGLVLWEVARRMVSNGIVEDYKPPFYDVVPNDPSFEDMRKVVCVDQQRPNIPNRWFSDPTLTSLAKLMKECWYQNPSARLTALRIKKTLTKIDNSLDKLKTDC

[3] = molecular target: full length human ACVR1 (R206H) on HEK293/BRE-luc/hACVR1-R206H-clone H2 cells (human) (UniProt Q04771); test: flow cytometry, secondary antibody alone (70 nM run), HEK293/hACVR1-R206H cells
[4] = molecular target: full length human ACVR1 (R206H) on HEK293/BRE-luc/hACVR1-R206H-clone H2 cells (human) (UniProt Q04771); test: cell-based or functional assay
[5] = molecular target: human ACVR1 extracellular domain expressed with a C-terminal myc-myc-hexahistidine tag (human); test: SPR (Biacore), mAb captured, 25 C
Chain of human ACVR1 extracellular domain expressed with a C-terminal myc-myc-hexahistidine tag (human) (chain, as listed by the source limits assumed): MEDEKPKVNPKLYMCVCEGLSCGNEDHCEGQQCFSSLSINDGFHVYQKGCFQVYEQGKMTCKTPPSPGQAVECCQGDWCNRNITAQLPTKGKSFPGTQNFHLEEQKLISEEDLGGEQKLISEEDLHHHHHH

[6] = molecular target: mouse ACVR1 extracellular domain expressed with a C-terminal myc-myc-hexahistidine tag (mouse); test: SPR (Biacore), mAb captured, 25 C
Chain of mouse ACVR1 extracellular domain expressed with a C-terminal myc-myc-hexahistidine tag (mouse) (chain, as listed by the source limits assumed): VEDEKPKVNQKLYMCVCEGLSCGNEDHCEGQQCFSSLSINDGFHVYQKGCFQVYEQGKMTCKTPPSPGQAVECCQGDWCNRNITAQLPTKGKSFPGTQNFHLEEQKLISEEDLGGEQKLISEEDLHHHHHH

[7] = molecular target: human ACVR1 extracellular domain expressed with a C-terminal mouse IgG2a Fc tag (human); test: SPR (Biacore), mAb captured, 25 C
Chain of human ACVR1 extracellular domain expressed with a C-terminal mouse IgG2a Fc tag (human) (chain, as listed by the source limits assumed): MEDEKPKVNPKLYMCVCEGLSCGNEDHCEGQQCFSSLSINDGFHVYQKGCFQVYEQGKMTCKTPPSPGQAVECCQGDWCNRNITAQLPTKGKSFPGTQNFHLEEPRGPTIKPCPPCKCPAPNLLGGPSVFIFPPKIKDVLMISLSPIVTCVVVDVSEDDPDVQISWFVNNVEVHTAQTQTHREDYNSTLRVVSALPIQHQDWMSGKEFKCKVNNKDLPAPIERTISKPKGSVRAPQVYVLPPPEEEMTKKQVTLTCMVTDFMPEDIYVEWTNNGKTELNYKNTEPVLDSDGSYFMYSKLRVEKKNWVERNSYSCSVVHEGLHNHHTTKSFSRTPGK

[8] = molecular target: full length human ACVR1 (R206H) on HEK293/BRE-luc/hACVR1-R206H-clone H2 cells (human) (UniProt Q04771); test: flow cytometry, 66.6 nM antibody, HEK293/hACVR1-R206H cells
[9] = molecular target: human ACVR1 extracellular domain expressed with a C-terminal myc-myc-hexahistidine tag (human); test: SPR (Biacore), mAb captured, 37 C
[10] = molecular target: mouse ACVR1 extracellular domain expressed with a C-terminal myc-myc-hexahistidine tag (mouse); test: SPR (Biacore), mAb captured, 37 C
[11] = molecular target: human ACVR1 extracellular domain expressed with a C-terminal mouse IgG2a Fc tag (human); test: SPR (Biacore), mAb captured, 37 C
[12] = molecular target: full length wild type human ACVR1 on HEK293/BRE-luc/hACVR1-wild type cells (human) (UniProt Q04771); test: flow cytometry, 66.6 nM antibody, HEK293/hACVR1-wt cells
[13] = molecular target: full length human ACVR1 (R206H) on HEK293/BRE-luc/hACVR1-R206H-clone H2 cells (human) (UniProt Q04771); test: flow cytometry, 70 nM antibody, HEK293/hACVR1-R206H cells

Chain of full length human ACVR1 (R206H) on HEK293/BRE-luc/hACVR1-R206H-clone H2 cells (human) (Q04771 21-509 R206H): as the sequence (Q04771 21-509) above, with R186H counted along it

- MFI - Normalized to Unstained Control [1]: 1 fold
- MFI - Normalized to Unstained Control [2]: 1 fold
- MFI - Normalized to Unstained Control [3]: 1 fold
Substance: Alexa Fluor-647 conjugated secondary antibody (Jackson ImmunoResearch, anti-human #109-607-003), alone

- EC50 [M], BRE-luc reporter activation by ligand (run with 2 nM hBMP7) [4]: 1.22e-09 M
- EC50 [M], BRE-luc reporter activation by ligand (run with 3 nM hBMP7) [4]: 2.97e-10 M
Substance: human Bone Morphogenetic Protein 7 (R&D System 354-BP/C) (from UniProt P18075 293-431) (ligand)

- EC50 [M], BRE-luc reporter activation by ligand [4]: 3.33e-10 M
Substance: human Activin A (R&D System 338-AC) (from UniProt P08476 311-426) (ligand)

- 900 nM or 100 nM Ag Bound (RU) [5]: 1 RU
- 900 nM or 100 nM Ag Bound (RU) [6]: -2 RU
- 100 nM Ag Bound (RU) [7]: -2 RU
- MFI - Normalized to Unstained Control [8]: 1 fold
- 900 nM or 100 nM Ag Bound (RU) [9]: 0 RU
- 900 nM or 100 nM Ag Bound (RU) [10]: 0 RU
- 100 nM Ag Bound (RU) [11]: -1 RU
- MFI - Normalized to Unstained Control [12]: 3 fold
- MFI - Normalized to Unstained Control [13]: 3 fold
Substance: hIgG4 isotype control antibody (REGN1945)
